Results on one molecule are retold here after article PMC12008863 (Journal of Translational Medicine, 2025).

Assay [1] has as its target T1, Transthyretin (human, amino acids 21-147, recombinant) (human, UniProt P02766 21-147). As to the kind of experiment: SPR.
For assay [2], the target named is T1, Transthyretin (human, amino acids …). As to the kind of experiment: Langmuir equilibrium adsorption.

B1: Heterogeneous nuclear ribonucleoprotein A2B1 (human, amino acids 12-195, recombinant) (domain or fragment)
chain: RKKREKEQFRKLFIGGLSFETTEESLRNYYEQWGKLTDCVVMRDPASKRSRGFGFVTFSSMAEVDAAMAARPHSIDGRVVEPKRAVAREESGKPGAHVTVKKLFVGGIKEDTEEHHLRDYFEEYGKIDTIEIITDRQSGKKRGFGFVTFDDHDPVDKIVLQKYHTINGHNAEVRKALSRQEMQE
Consider B1, for which the Kd came to 3.68 µM in assay [1] and 7.13 µM in assay [2].
